Measurements published in patent publication US20220339099A1 (published 2022).

Biological target: T1, human IL-1 type 1 receptor (IL-1R1) (human, UniProt P14778 18-336, limits assumed)
T1 construct: SPR reagent; also called IL-1RI; interleukin-1 type I receptor
T1 sequence (looked up): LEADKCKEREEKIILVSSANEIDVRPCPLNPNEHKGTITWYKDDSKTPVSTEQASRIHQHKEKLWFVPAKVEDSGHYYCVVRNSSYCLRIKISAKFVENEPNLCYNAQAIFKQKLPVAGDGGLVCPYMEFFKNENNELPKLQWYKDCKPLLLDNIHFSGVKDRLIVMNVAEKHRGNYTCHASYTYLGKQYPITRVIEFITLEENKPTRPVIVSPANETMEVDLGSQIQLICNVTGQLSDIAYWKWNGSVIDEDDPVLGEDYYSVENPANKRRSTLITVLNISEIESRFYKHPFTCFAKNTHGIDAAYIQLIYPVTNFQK
Test: surface plasmon resonance

Kd: 547 nM | koff: 0.00145 s⁻¹ | kon: 2650 M⁻¹ s⁻¹
B1: rhIL-1α (recombinant human interleukin-1 alpha) (ligand, UniProt P01583 113-271, looked up)
chain: SAPFSFLSNVKYNFMRIIKYEFILNDALNQSIIRANDQYLTAAALHNLDEAVKFDMGAYKSSKDDAKITVILRISKTQLYVTAQDEDQPVLLKEMPEIPKTITGSETNLLFFWETHGTKNYFTSVAHPNLFIATKQDYWVCLAGGPPSITDFQILENQA
notes: also called rhlL-1α
